Test results reported in US20160024210A1 (AstraZeneca / MedImmune, published 2016).

T1: human H7CR (B7-H7 counter-receptor) (human, UniProt Q96BF3 23-282)
T1 construct: Used for H7CR on CHO.hH7CR transfectants, human T cells and tonsil tissue; also called B7-H7CR; CD28H
T1 sequence: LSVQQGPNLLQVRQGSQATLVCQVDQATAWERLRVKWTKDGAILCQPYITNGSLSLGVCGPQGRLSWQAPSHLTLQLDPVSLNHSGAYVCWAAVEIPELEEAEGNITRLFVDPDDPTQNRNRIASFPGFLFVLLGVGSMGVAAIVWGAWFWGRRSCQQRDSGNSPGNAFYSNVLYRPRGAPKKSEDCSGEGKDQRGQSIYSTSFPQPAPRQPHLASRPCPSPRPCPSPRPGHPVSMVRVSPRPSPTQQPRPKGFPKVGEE

T2: H7CR-GFP fusion protein on transfected CHO cells (Homo sapiens (Human), UniProt Q96BF3 23-282)
T2 construct: not shown: GFP part
T2 sequence: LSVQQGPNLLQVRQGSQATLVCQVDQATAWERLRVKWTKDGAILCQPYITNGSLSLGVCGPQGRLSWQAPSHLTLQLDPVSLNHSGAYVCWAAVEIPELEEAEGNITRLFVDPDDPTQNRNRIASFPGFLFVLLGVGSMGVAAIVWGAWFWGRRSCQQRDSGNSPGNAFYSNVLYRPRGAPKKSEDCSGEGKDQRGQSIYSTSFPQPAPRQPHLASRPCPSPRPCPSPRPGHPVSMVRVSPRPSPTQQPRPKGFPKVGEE


Key:
[1] = molecular target: T1, human H7CR (B7-H7 counter-receptor); experiment: binding to human H7CR as endogenously expressed on the surface of a cell
[2] = molecular target: T2, H7CR-GFP fusion protein on transfected …; experiment: flow cytometry, 5 µg/ml variant on H7CR-GFP transfected CHO cells, anti-hIg PE secondary antibody [row HC2-3, column LC1-3]
Description: (§1) 5 μg/ml antibodies from thirty-six variants were incubated with H7CR-GFP fusion protein transfected CHO cells for 30 min at room temperature. Cells were then washed twice with 2 ml flow cytometry buffer, and resuspended in 100 μl flow cytometry buffer. 1 μl anti-hIg PE secondary antibody (Biolegend) was added and incubated with the cells for 15 mins Samples were then washed and resuspended in 100 μl flow cytometry buffer. Flow Cytometry data was acquired using BD Canto (BD Biosciences) in plate format and analyzed by FlowJo software.

[3] = molecular target: T2, H7CR-GFP fusion protein on transfected …; experiment: flow cytometry, 5 µg/ml variant on H7CR-GFP transfected CHO cells, anti-hIg PE secondary antibody [row HC2-3, column LC2-1]
Description: as §1

[4] = molecular target: T2, H7CR-GFP fusion protein on transfected …; experiment: flow cytometry, 5 µg/ml variant on H7CR-GFP transfected CHO cells, anti-hIg PE secondary antibody [row HC2-3, column LC2-2]
Description: as §1

[5] = molecular target: T2, H7CR-GFP fusion protein on transfected …; experiment: flow cytometry, 5 µg/ml variant on H7CR-GFP transfected CHO cells, anti-hIg PE secondary antibody [row HC2-3, column LC2-3]
Description: as §1

| Binder | binding result [1] | binding result [2] | binding result [3] | binding result [4] | binding result [5] |
| --- | --- | --- | --- | --- | --- |
| 4.5 humanized variant 33 (HC2-3 / LC1-3) (antibody, V domains shown, Variable domains only; detected with anti-hIg secondary; also called VH2C / VL1C) VH: QIQLKESGPTLVKPTQTLTLTCTVSGFSITTGGYYWNWIRQPPGKKLEWMALIYTSGRTSYNPSLKSRLTITKDTSKNQVVLTMTNMDPVDTATYYCADMADKGGWFAYWGQGTLVTVSS VL: DIVMTQSPDSLAVSLGERATINCLSSQSLFSSNTKRNYLNWYQQKPGQSPKLLIYHASTRLSGVPDRFSGSGSGTDFTLTISSLQAEDVADYFCQQHYETPLTFGDGTRLEIK | binds | binds |  |  |  |
| 4.5 humanized variant 34 (HC2-3 / LC2-1) (antibody, V domains shown, Variable domains only; detected with anti-hIg secondary; also called VH2C / VL2A) VH: QIQLKESGPTLVKPTQTLTLTCTVSGFSITTGGYYWNWIRQPPGKKLEWMALIYTSGRTSYNPSLKSRLTITKDTSKNQVVLTMTNMDPVDTATYYCADMADKGGWFAYWGQGTLVTVSS VL: DIVMTQTPLSLPVTPGEPASISCRSSQSLFSSNTKRNYLDWYLQKPGQSPQLLIYHASYRASGVPDRFSGSGSGTDFTLKISRVEAEDVGVYYCQQHYETPLTFGQGTRLEIK | binds |  | binds |  |  |
| 4.5 humanized variant 35 (HC2-3 / LC2-2) (antibody, V domains shown, Variable domains only; detected with anti-hIg secondary; also called VH2C / VL2B) VH: QIQLKESGPTLVKPTQTLTLTCTVSGFSITTGGYYWNWIRQPPGKKLEWMALIYTSGRTSYNPSLKSRLTITKDTSKNQVVLTMTNMDPVDTATYYCADMADKGGWFAYWGQGTLVTVSS VL: DIVMTQTPLSLPVTPGEPASISCRSSQSLFSSNTKRNYLNWYLQKPGQSPKLLIYHASTRLSGVPDRFSGSGSGTDFTLKISRVEAEDVGDYFCQQHYETPLTFGDGTRLEIK | binds |  |  | binds |  |
| 4.5 humanized variant 36 (HC2-3 / LC2-3) (antibody, V domains shown, Variable domains only; detected with anti-hIg secondary; also called VH2C / VL2C) VH: QIQLKESGPTLVKPTQTLTLTCTVSGFSITTGGYYWNWIRQPPGKKLEWMALIYTSGRTSYNPSLKSRLTITKDTSKNQVVLTMTNMDPVDTATYYCADMADKGGWFAYWGQGTLVTVSS VL: DIVMTQTPSSLPVTPGEPASISCLSSQSLFSSNTKRNYLNWYLQKPGQSPKLLIYHASTRLSGVPDRFSGSGSGTDFTLKISRVEAEDVGDYFCQQHYETPLTFGDGTRLEIK | binds |  |  |  | binds |
